# The supplement of paper PMC7877785
# ± gives the uncertainty stated by the source.
# Assay: self-splicing fitness, log relative to wild type (ln ratio); higher = more splicing; Tetrahymena group I intron in knt gene, E. coli kanamycin selection, DiMSum; sequences stand for … in CUCUCU…GGAGGGAAAAGUUAUCAGGCAUGCACCUGGUAGCUAGUCUUUAAACCAAUAGAUUGCAUCGGUUUAAAAGGCAAGACCGUCAAAUUGCGGGAAAGGGGUCAACAGCCGUUCAGUACCAAGUCUCAGGGGAAACUUUGAGAUGGCCUUGCAAAGGGUAUGGUAAUAAGCUGACGGACAUGGUCCUAACCACGCAGCCAAGUCCUAAGUCAACAGAUCUUCUGUUGAUAUGGAUGCAGUUCACAGACUAAAUGUCGGUCGGGGAAGAUGUAUUCUUCUCAUAAGAUAUAGUCGGACCUCUCCUUAAUGGGAGCUAGCGGAUGAAGUGAUGCAACACUGGAGCCGCUGGGAACUAAUUUGUAUGCGAAAGUAUAUUGAUUAGUUUUGGAGUACUCGUGGUCG
# Summary of the method: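 Six replicate transformations of E. coli BL21(DE3) with a pET-22b(+) library were grown overnight at 37°C or 30°C. The library randomised all eight P1ex-region intron nucleotides, the intron lying in the knt kanamycin-resistance gene, and plates were LB agar with or without 25 μg/mL kanamycin plus 100 μg/mL carbenicillin, 50 μM IPTG and 0.2% rhamnose. Pooled colonies were amplicon-sequenced on an Illumina HiSeq 2500, and fitness is the DiMSum error-weighted combination of wild-type-normalised replicate fold changes, kanamycin versus none.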
Sequence,self-splicing fitness (ln) (30 °C),self-splicing fitness (ln) (37 °C)
UUGUAGCAAUAUUACGUUAG,-2.36 ± 0.25,-1.28 ± 0.21
UUGUAGCAAUAUUACGUUUA,-1.36 ± 0.16,-1.15 ± 0.17
UUUAAGCAAUAUUACGAAAG,-3.48 ± 0.32,-1.54 ± 0.25
UUUAAGCAAUAUUACGACGG,-0.639 ± 0.11,0.382 ± 0.13
UUUAAGCAAUAUUACGACUG,-0.203 ± 0.097,0.954 ± 0.12
UUUAAGCAAUAUUACGAGUG,-1.38 ± 0.14,-0.204 ± 0.13
UUUAAGCAAUAUUACGAUUA,-0.637 ± 0.1,-0.207 ± 0.11
UUUAAGCAAUAUUACGCAGG,-0.857 ± 0.14,-0.494 ± 0.2
UUUAAGCAAUAUUACGCCAG,-1.08 ± 0.15,-0.457 ± 0.2
UUUAAGCAAUAUUACGCCUA,-1.34 ± 0.21,0.351 ± 0.21
UUUAAGCAAUAUUACGCCUC,,-0.852 ± 0.36
UUUAAGCAAUAUUACGCGCA,-0.212 ± 0.11,0.0171 ± 0.15
UUUAAGCAAUAUUACGCUAA,-2.34 ± 0.17,-1.09 ± 0.19
UUUAAGCAAUAUUACGCUAU,-2.94 ± 0.27,-0.849 ± 0.21
UUUAAGCAAUAUUACGGAGU,-3.04 ± 0.39,-1.18 ± 0.43
UUUAAGCAAUAUUACGGAUA,-1.12 ± 0.18,-1.13 ± 0.18
UUUAAGCAAUAUUACGGCAG,-0.39 ± 0.098,0.179 ± 0.15
UUUAAGCAAUAUUACGGCCU,-1.69 ± 0.14,-0.999 ± 0.17
UUUAAGCAAUAUUACGGUCG,-0.794 ± 0.067,-0.269 ± 0.089
UUUAAGCAAUAUUACGUAUA,-1.95 ± 0.12,-1.54 ± 0.14
UUUAAGCAAUAUUACGUUUA,-2.69 ± 0.17,-2.1 ± 0.11
UUUCAGCAAUAUUACGAAGC,-0.935 ± 0.36,
UUUCAGCAAUAUUACGACUC,-2.82 ± 0.18,-0.13 ± 0.14
UUUCAGCAAUAUUACGAGCG,-0.768 ± 0.09,-0.289 ± 0.11

Sequence,self-splicing fitness (ln) (30 °C),self-splicing fitness (ln) (37 °C)
UUUCAGCAAUAUUACGAGUC,-3.12 ± 0.29,-1.97 ± 0.37
UUUCAGCAAUAUUACGAUUU,-1.34 ± 0.098,-0.0319 ± 0.12
UUUCAGCAAUAUUACGCGGU,-3.46 ± 0.25,-1.92 ± 0.2
UUUCAGCAAUAUUACGCGUC,-3.56 ± 0.15,-2.01 ± 0.14
UUUCAGCAAUAUUACGCGUU,-2.13 ± 0.21,-0.852 ± 0.17
UUUCAGCAAUAUUACGGCCA,-1.3 ± 0.19,-0.656 ± 0.11
UUUCAGCAAUAUUACGGCUU,-1.39 ± 0.13,-0.047 ± 0.13
UUUCAGCAAUAUUACGGUUG,-1.62 ± 0.091,-1.1 ± 0.12
UUUCAGCAAUAUUACGUGUG,-0.986 ± 0.067,-0.142 ± 0.075
UUUCAGCAAUAUUACGUUAC,-4.82 ± 0.28,-2.66 ± 0.16
UUUCAGCAAUAUUACGUUCA,-1.04 ± 0.13,-0.407 ± 0.15
UUUCAGCAAUAUUACGUUGG,-4.07 ± 0.18,-2.52 ± 0.2
UUUCAGCAAUAUUACGUUUG,-1.91 ± 0.086,-1.12 ± 0.1
UUUGAGCAAUAUUACGAGAG,-2.2 ± 0.32,
UUUGAGCAAUAUUACGAGGU,-4.2 ± 0.46,-3.66 ± 0.46
UUUGAGCAAUAUUACGAGUU,,-1.87 ± 0.42
UUUGAGCAAUAUUACGAUCA,-2.12 ± 0.24,-1.28 ± 0.25
UUUGAGCAAUAUUACGCAAG,-3.09 ± 0.34,-1.51 ± 0.23
UUUGAGCAAUAUUACGCGUC,-2.03 ± 0.22,-2.49 ± 0.26
UUUGAGCAAUAUUACGCGUG,-2.33 ± 0.14,-0.742 ± 0.12
UUUGAGCAAUAUUACGGAAG,,-1.41 ± 0.43
UUUGAGCAAUAUUACGGAUA,-3.12 ± 0.43,-2.36 ± 0.45
UUUGAGCAAUAUUACGGCAC,-2.87 ± 0.41,-2.56 ± 0.31
UUUGAGCAAUAUUACGGGCG,-3.15 ± 0.42,-2.16 ± 0.43

Sequence,self-splicing fitness (ln) (30 °C),self-splicing fitness (ln) (37 °C)
UUUGAGCAAUAUUACGGGCU,-2.89 ± 0.34,-2.86 ± 0.41
UUUGAGCAAUAUUACGGGUC,,-3.77 ± 0.46
UUUGAGCAAUAUUACGUACC,-2.34 ± 0.44,-2.3 ± 0.42
UUUGAGCAAUAUUACGUAUG,-1.73 ± 0.16,-2.59 ± 0.24
UUUGAGCAAUAUUACGUCUG,-2.41 ± 0.24,-0.733 ± 0.21
UUUGAGCAAUAUUACGUGGG,-2.17 ± 0.47,-1.39 ± 0.3
UUUGAGCAAUAUUACGUGGU,-4.12 ± 0.33,-2.74 ± 0.38
UUUGAGCAAUAUUACGUUCC,-3.99 ± 0.39,
UUUGAGCAAUAUUACGUUCG,-4.2 ± 0.42,-1.18 ± 0.19
UUUGAGCAAUAUUACGUUGA,,-1.92 ± 0.33
UUUGAGCAAUAUUACGUUGU,-2.68 ± 0.21,-2.46 ± 0.28
UUUUAGCAAUAUUACGACUC,-2.56 ± 0.46,
UUUUAGCAAUAUUACGAGGU,-2.89 ± 0.43,
UUUUAGCAAUAUUACGCAGG,-1.33 ± 0.12,-1.03 ± 0.16
UUUUAGCAAUAUUACGCGAA,-1.57 ± 0.28,-1.08 ± 0.39
UUUUAGCAAUAUUACGCGCC,-1.71 ± 0.29,-0.726 ± 0.28
UUUUAGCAAUAUUACGCGUA,-1.57 ± 0.13,-1.22 ± 0.12
UUUUAGCAAUAUUACGGCCC,,-1.14 ± 0.42
UUUUAGCAAUAUUACGUAAC,-3.07 ± 0.31,-1.57 ± 0.38
UUUUAGCAAUAUUACGUCUU,-2.43 ± 0.18,-1.33 ± 0.19
UUUUAGCAAUAUUACGUGAC,-3.41 ± 0.28,-0.031 ± 0.22
UUUUAGCAAUAUUACGUGGG,-1.79 ± 0.2,-2.27 ± 0.27
UUUUAGCAAUAUUACGUUUA,-1.94 ± 0.22,-1.05 ± 0.16
